Changes are numbered by the printed parent chain.

The test addresses IgEs from a serum pool of patients allergic to birch pollen (RAST 3+ and 4+ to Bet v 2) (human). As to the kind of experiment: REAST inhibition: serum pool pre-incubated with inhibitor, IgE captured on anti-IgE plate, biotinylated Bet v 2 detection.

B1: SEQ ID NO:4 (protein)
chain: MSWQTYVDEHLMCDIDGQASNSLASAIVGHDGSVWAQSSSFPQFKPQEITGIMKDFEEPGHLAPTGLHLGGIKYMVIQGEAGAVIRGGEGSGGITIKKTGQALVFGIYEEPVTPGQCNMVVERLGDYLIDQGL
For the molecule B1, the percent inhibition of Bet v 2 wt binding to IgE at 1.45 ng inhibitor came out at 13.4%.

B2: SEQ ID NO:6 (protein)
chain: B1 chain with S39A
In the case of B2, the percent inhibition of Bet v 2 wt binding to IgE at 1.45 ng inhibitor was 8.8%.

B3: SEQ ID NO:2 (protein)
chain: B1 chain with S39A, G88K, E89K
In turn, B3 had a percent inhibition of Bet v 2 wt binding to IgE at 1.45 ng inhibitor of 40.4%.

B4: wild-type Bet v 2 allergen (SEQ ID NO:1) (protein)
chain: B1 chain with G88K, E89K
The molecule B4 came in with a percent inhibition of Bet v 2 wt binding to IgE at 1.45 ng inhibitor of 82.6%.

B5: SEQ ID NO:3 (protein)
chain: B1 chain with K45T, G88K, E89K
B5 showed a percent inhibition of Bet v 2 wt binding to IgE at 1.45 ng inhibitor of 71%.
